{
  "source": "the DeepSol protein solubility set",
  "data": [
    {"experiment": "soluble on expression in E. coli; label from the status in PepcDB or PDB records", "values": [
      {"sequence": "MLLVMGAHESGLDRARLQSLYEQLVATNEDETEKLAASGHSTGLVASEWARFLAPFDFGYRLVALQRESKRVAAALTRALYGIDTSGASEHDPLWAVEHRVLPVPVTDRLLFCEMRFLLVLALSRRLWMRLERVDPLGQENPFPRDAEIIERVEDLARQSRERLALLAERSPEALNAGKQEAHDCIEDLRTKETRAAEQVAGFAQALGDAALLEKVWHALVDEIAQNRQLNHALLQTLCQWVLMLIGADTEVPSSASCSDE", "soluble on expression in E. coli": "soluble"},
      {"sequence": "MLMIKGIIFDMDGVLFDTEPFYLRRREDFFKTKGIPIDHLNSKDFIGGNLQELWKELLGKNRDDAIVKAITTDYDAYKQAHKPPYQKLLITEVNSCLEQLEKQGIKLAVASNSKRQDVLLALETTQIKDYFEIILAREDVSRGKPYPDIYNKAVQKLGLQKKQLLVVEDSQKGIAAAKAANLTVFAITDYRYGIDQSQADHKIDHLGQLCVKIGCFGS", "soluble on expression in E. coli": "not soluble"},
      {"sequence": "MLMPRRMKYRKQQRGRLKGATKGGDYVAFGDYGLVALEPAWITAQQIEAARVAMVRHFRRGGKIFIRIFPDKPYTKKPLEVRMGKGKGNVEGYVAVVKPGRVMFEVAGVTEEQAMEALRIAGHKLPIKTKIVRRDAYDEAQ", "soluble on expression in E. coli": "soluble"},
      {"sequence": "MLNIDNIQSLIDNGEGYNVEFKVRVPSKVRELTEEICAFANADGGYLLIGVDDNGQVVDTNLENDKRSAIQGSISEISPTLHCELYSVNLGDKTVWVIDVPSSKDKPYIFSGSIYVREGANSQKLRTAEEIRSFFQECNKIYFDHIPCHWFNIYTDADAQMIKDFRTEAKLSPSTPRQTNILEHHHHHH", "soluble on expression in E. coli": "soluble"},
      {"sequence": "MLNIQNYSASPHPGIVAERPQTPSASEHVETAVVPSTTEHRGTDIISLSQAATKIHQAQQTLQSTPPISEENNDERTLARQQLTSSLNALAKSGVSLSAEQNENLRSAFSAPTSALFSASPMAQPRTTISDAEIWDMVSQNISAIGDSYLGVYENVVAVYTDFYQAFSDILSKMGGWLLPGKDGNTVKLDVTSLKNDLNSLVNKYNQINSNTVLFPAQSGSGVKVATEAEARQWLSELNLPNSCLKSYGSGYVVTVDLTPLQKMVQDIDGLGAPGKDSKLEMDNAKYQAWQSGFKAQEENMKTTLQTLTQKYSNANSLYDNLVKVLSSTISSSLETAKSFLQGLEHHHHHH", "soluble on expression in E. coli": "soluble"},
      {"sequence": "MLNKEIKGALIVSCQALADEPLHSSFIMSKMALAAKQGGAKGIRANSVVDIRAIRKEVDLPIIGIIKRDYPDAEVYITATMREVDELMAVQPEIIALDATHSKRPNGETLATFFKRIKEKYPNQEWMADCSTLEEMIEAAELGFDYIGTTLVGYTPQSENQRIEQNDFELLREAKKHFTTPIIAEGMIDTPAKVQRVLELGTYSVVVGSVITRPQKITEKFVEATKIKQNQA", "soluble on expression in E. coli": "not soluble"},
      {"sequence": "MLNLFRNRKRNGAGPTIKKAQKMPELDDFLSNQDYEGAISLLNHKLKAGNLDREEEDSLQLWLAHCYYRLRNYEEAANVYTFLMNKDDAPAELGVYLACCKFYLKQYIEAKSIAEKCPKTPLCIRLMMNVSLRLNDEKRILTFHSSLGDTLEDRLSLAGVNYSRMHYQDAIEVYTSVLQTSPNLIGLNVNMALCYAKMDYPHVAYNLIKNYLRNFPNSPFAKNLLLSVLYRTITSKTTVDEKSELARNIDQEGLTMVSDMEALLKQKLYPEIEYICKHNLVLFKNCETALQVLPSLMKHIPEARVNLILYHLNKNNVKDAISLCKDFDPVTPYEFLVKALTFLRHGQETNSREHLKIAENFFQMVGESGLVQDTIAGRQSSAAYLFLSFKFDDVITYLKSIEAYFTNNDDFLLNLAQAYLMYKNYVAAEKLFIRVSGPERDKILYKSMLARCYVRNKKPQSAWDMMLKTNNPSDRMSLLKVIAQDCYIANEFYYASKAFHEIEISDPTTENWSGKRGACAGLFRQLANHKTDPILISQMREVVHLVAMKPHSNCEFLLKVVRNWAETHNVNIIN", "soluble on expression in E. coli": "not soluble"},
      {"sequence": "MLNQPRLDEIMRLLAQQQRVKASDLAQLLFVSEETIRRDFKHLEEEGRLRRIHGGAILPRSSEELPLQERSRLKPRAKAGIATCAAQLVTEGMAIFLDTGTSTLALAQQLTRFSQLKIITNSLDIAQLISHQSDNQVLVAPGDVRRTDNALIGPHTLEFARQFHYDIAFMGIGGIDLDLGLMDYQEPEAMLRRTLVRHCARSVVLADDGKFGHRTFINTLPFAAITTLVTNRPLSDEFATRLEKDHVDTLYP", "soluble on expression in E. coli": "not soluble"},
      {"sequence": "MLNVGDSVQIAGCSTKKRLLETSSGCDSFDTLIGGALVNSSIVLIDEYRSRCYGSYLIRSFLAEGLHHGHRCFIADPTEDPKEINLIPSRRTSTDMQNQEIPNSLPAENENSMKIAWRYGNVKQVSSSLGPLSNENQYDFTKHVENPNVDVYAEKVFTLKGIYETLCQIVKENEAHTKSGGRGGPKKNLLRVVLKNIDMEICEDYKFLGRFLCCLRSLARSSYMIVYITANSFRVPKPTWRILESAADTHIQLMPFDENEKKMFKHLGTAHGYFHLKSLPRLMSVGTHTPPILDLIFEASSRKGFQIRVMHLPPAFDEPAPGHQNTPSCQNIDF", "soluble on expression in E. coli": "soluble"},
      {"sequence": "MLPKSSLKETQQALANAIRLGNADPLNGYAASRLAVYTRLVRNNAFGFIDRCFVEAPLHIEPEYWKNAKENFVQNGNAHSPYFQDIAGEFLLFCQEKEIFDTNILALMDFENTQLLAEVSLAKVPEKFEWNRHSVMQLSGAAYLKSYDVDFLSSDFKQFDDTPIQAIIWRDSDFRIQQQILSELDYWLLSYLQEQPNSLENVLSALNTMVEDSTSIIPLLEQVWMKWVTSEVIYPEQR", "soluble on expression in E. coli": "not soluble"},
      {"sequence": "MLPLIRKMKPTDAAALTIINKEQLGYEVPVDVTCKQIEKLLLASDREFLYVYEETKTGKILGYVHAQLYETIYSQTLLNVLGLAVAKEAEGRGIGKQLMTKLETEAKKCNLSAIRLNSGEQRTAAHQFYEHIGYVSDKKQKRFIKYLDT", "soluble on expression in E. coli": "not soluble"},
      {"sequence": "MLPRLGGFLAGFSSTISSFLPKTTASTLFTHQSSQFSTSFPAWRNNFLQFIHYRNGPPKRRARSKDKSAISGYSHYKGIVLKTVIRHPKKPNSGNRKCAIVRLSTGAEVCAYIPNVGHNLQEHSQVLVKGGRRRDLISVKANIVRGKYDCAPAGGRK", "soluble on expression in E. coli": "not soluble"},
      {"sequence": "MLQKDPCLDDILENSEKLENNSNKKNIDSIDTIKLSDIIEKMIEINSIVRIEKIFEEKIVSQNPVVNVVVNDGSARGLLSLWSEQISLLNELNEGDAILIENAHAPKKYKDRIHLALSKSGKISKIESDLPTIDELLKKSSAQRNDFSRKSISELKEGIGAELRGLIVAIHSKEPYFPVCDKCNKKMTLKKGYAVCKCGNKVDEEDENLKWLFLCTCTLDDGSGTIRVTLNNNTNYLDLEELKKIIIDDEEILDVLNNKLLGLDILTSGFTIYDEYLKDTAFRCNNWNKIDIMEEFNKKLKGLEHHHHHH", "soluble on expression in E. coli": "soluble"},
      {"sequence": "MLRFDHLVHAVHGTPEEAAKQMQELGFHTVLGGEHTNWGTWNSLSYFDLSYIEFLAVQYEEKAKEAENPLVQETVVKLQNGEGMLQIAIRTDAIEELAVNFNKYGLHTIGPFEGKRMRKDGRLLEWKMLFVKQEENGPKLPFFIQWNETDEERRNDLRNSGTITEHKNKVQQIETIHYAVKNVRETVRKWKEVMELSTSSVVKIEKWNAECQSVVFGDIHVQFCEPIGEGLVLEHLNKNGENPFAVEFKGGNKREHEVLGSLYIY", "soluble on expression in E. coli": "not soluble"},
      {"sequence": "MLRIGLTGGIGAGKSLLSTTFSQCGGIVVDGDVLAREVVQPGTEGLASLVDAFGRDILLADGALDRQALAAKAFRDDESRGVLNGIVHPLVARRRSEIIAAVSGDAVVVEDIPLLVESGMAPLFPLVVVVHADVELRVRRLVEQRGMAEADARARIAAQASDQQRRAVADVWLDNSGSPEDLVRRARDVWNTRVQPFAHNLAQRQIARAPARLVPADPSWPDQARRIVNRLKIACGHKALRVDHIGSTAVSGFPDFLAKDVIDIQVTVESLDVADELAEPLLAAGYPRLEHITQDTEKTDARSTVGRYDHTDSAALWHKRVHASADPGRPTNVHLRVHGWPNQQFALLFVDWLAANPGAREDYLTVKCDADRRADGELARYVTAKEPWFLDAYQRAWEWADAVHWRP", "soluble on expression in E. coli": "soluble"},
      {"sequence": "MLRQIGEFYHQGEKDDTSRVWMTCWHHGGRILASCGDDKAVRVWSLVGEPDSKMRLECRTTLDDSHTRAVRSVAFSNDGKCLVSASFDASVVVYQQEDGEFAEVNKLEGHESEVKCAVFSKSDEFLATCSRDKSVWFWQQDEDEDFSVSSILQPHTQDVKQVAWHPTEDLLVSCSYDSSIRFYRFDGEDWVTQQKIDGCHVGTVWSIAFDTEGHRLVTVGEDHCIQLFVRENIGSKSADQDTWKSVARYDVENTRWPLYSVAWNSTNDVIATGGGDCKIRLFKISSTPESPVIEHLGVVGRHELDVNHVAWNPNPKFSNLLTSASDDGTIRLWELEI", "soluble on expression in E. coli": "not soluble"},
      {"sequence": "MLRTFRIGGIHPPENKLSAGKPVEVLPIPSQVVIPLGQHIGAPATATVKKGDEVKVGTIIAQAGGFVSANIHSSVSGKVLKIDNVYDSSGYPKPAVFISVEGDEWEEGIDRSPAIVKECNLDAKEIVAKISAAGIVGLGGATFPTHVKLSPPPGNKAEILIINAVECEPYLTSDHVLMLEHGEEIMIGVSILMKAIQVNKAVIGVENNKKDAIAHLTKLATAYPGIEVMPLKVQYPQGGEKQLIDAVIRKQVKSGALPISTGAVVQNVGTVFAVYEAVQKNKPLVERIVTVTGKKLSRPSNLLVRIGTPIAALIEAAGGLPENTGKIIGGGPMMGRALLSPDVPVTKGSSGVLILDREEAVRKPMRDCIRCAKCVGVCPMGLNPAFLMRDTLYKSWETAEKGNVVDCIECGSCSFTCPANRPLLDYIRQAKKTVMGIQRARKQLEHHHHHH", "soluble on expression in E. coli": "not soluble"},
      {"sequence": "MLRVLVRTGSEACRAVSTSTAVLSVHPVVKSEDLSAKEIWDRRSKLRVPKLQKDEQLSSKVYFAPEWDLEKKPNLDEGFVNPLKGYGMTPEKWEYYNKVVWPPNYIVPETGLPKPKEVFHCKESVHFSPKRMWAACQLVWKMNVDEAITQLDMQQLKACNLLMDTIKKAKSRAADEFHIEYPSQMYVADAFPVQSNIVKGARRHAHDNWNTIRYRYIHIFVRLEEGPAPQQKQRHPQKNGWDHMDEYYNYLRSRTVKYSI", "soluble on expression in E. coli": "not soluble"},
      {"sequence": "MLSDIQHDQFGFIKGCIISVIWLSLSRTLNRDQLNLDRFEFWQPTSQLLVLDVCLFDAFALEHHHHHH", "soluble on expression in E. coli": "not soluble"},
      {"sequence": "MLSEQLLAQQHLPEKLKKNIPGLYFHGRVGRGKTMLMDLFYQHLAIKNKKRIHFHHFMESVHQQLAQLTGQSEPLSHIAAKWAQNIDLLCFDEFYVSDIGDAMLLSGLFSALFKQGVTLVATSNCQPEQLYRNGLQRERFLPTIALINQHCQIVSINGDVDHRRTKLSKNSCYNNYFLLANEGNEKLIERFQSLTDAEMLVSGEIEINHRQLCYLAQSANVIFFDFFALCSGPRSQRDYMVLAKDFDTVCIANVPKFSGELVPAVFSGVEDSYQRSGVLMGELQQLDDEARRFIALVDEFYDQNVKLIVSAQVDIFELYQGQQLAFEFERCQSRLIEMQQSLEHHHHHH", "soluble on expression in E. coli": "not soluble"},
      {"sequence": "MLSKSKRSCRRRETLRIGEKMSAPITNLQAAQRDAIMNRPAVNGFPHLAETLRRAGVRTNTWWLPAMQSLYETDYGPVLDQGVPLIDGVAEVPAFDRTALVTALRADQAGQTSFREFAAAAWRAGVLRYVVDLENRTCTYFGLHDQTYMEHYAAVEPSGGAPTS", "soluble on expression in E. coli": "not soluble"}
    ]}
  ]
}
